Measurements as given in the DeepSol protein solubility set.

assay: soluble on expression in E. coli; label from the status in PepcDB or PDB records

Sequence	soluble on expression in E. coli
MKLTVVGLGYIGLPTSIMFAKHGVDVLGVDINQQTIDKLQSGQISIEEPGLQEVYEEVLSSGKLKVSTTPDASDVFIIAVPTPNNDDQYRSCDISLVMRALDSILSFLEKGNTIIVESTIAPKTMDDFVKPVIENLGFTIGEDIYLVHCPERVLPGKILEELVHNNRIIGGVTEACIEAGKRVYRTFVQGEMIETDARTAEMSKLMENTYRDVNIALANELTKICNNLNINVLDVIEMANKHPRVNIHQPGPGVGGHCLAVDPYFIIAKDPENAKLIQTGREINNSMPAYVVDTTKQIIKVLSGNKVTVFGLTYKGDVDDIRESPAFDIYELLNQEPDIEVCAYDPHVELDFVEHDMSHAVKDASLVLILSDHSEFKNLSDSHFDKMKHKVIFDTKNVVKSSFEDVSYYNYGNIFNFIDK	not soluble
MKLVILLSFVATVAVFAAPSAPAGLEEKLRALQEQLYSLEKENGVDVKQKEQPAAADTFLGFVPQKRMVAWQPMKRSMINEDSRAPLLHAIEARLAEVLRAGERLGVNPEEVLADLRARNQFQ	not soluble
MKLVLVSTRGVRSLNSTNFPAPWPFVKKGAFGQRKIGPMNYEKFKWPGQNREFPELSPKFQKLNPKELHRYTGVQADGFHDEKTGEFVPVKEMRSELVVPNLDGFKLRPYVSYRTDVQIEKRRVAYEKKVLEKGSERLADLHTVEDERWPPPKMSAETLFELAYGDTVRSAYKEGKYGNK	not soluble
MKLVRPQKISDQVLSVLEERIAEGVYAEGGKIPPERVLAEEFGVSRPSVRSALNVLVARQVLEARQGDGYYVSVKPQQDFLQSWQELLGKHSNWEQDVFDFSCHIEGCMAALAAERRTDADLKRIGFWLEKFEEACESGNLEHQSEADVSFHQTIADAAHNLLFSHLSGGLLKMLYRQTRSSLIYLNQEEDPRPKLMAQHRVLYEAISNRRPGEASEAAKAHLNYVASSILKDREYQSRNRHADTLAQNDLKRVQDWAV	soluble
MKLYMSVDMEGISGLPDDTFVDSGKRNYERGRLIMTEEANYCIAEAFNSGCTEVLVNDSHSKMNNLMVEKLHPEADLISGDVKPFSMVEGLDDTFRGALFLGYHARASTPGVMSHSMIFGVRHFYINDRPVGELGLNAYVAGYYDVPVLMVAGDDRAAKEAEELIPNVTTAAVKQTISRSAVKCLSPAKRGRLLTEKTAFALQNKDKVKPLTPPDRPVLSIEFANYGQAEWANLMPGTEIKTGTTTVQFQAKDMLEAYQAMLVMTELAMRTSFC	soluble
MKMFNIASEDDIKKGLASDVYFERSISTLTETCKDHRVAMEATVSGPLDTWINFSGLDEVLKLLEGIDVDVFAIPEGTILYPRDSNGIPVPFIRIEGNYCDFGMYETSILGMICQASGISTKSSKVRIAAGDCPFFSFGIRRMHPAVSPMIDRSAFIGGADGVSGILGAKLIGEEPIGTMPHALSIILGDDEAWRLTLKNTKNGQKSVILIDTYMDEKFAAIKVAEEFEHVDYIRLDTPSSRRGNFEALVREVKWELALRGRSDIKIMVSGGLDENTVAKLREAGAQAFGVGTSISSAKPFDFALDIVSIDDKPKTKRGKLSGKKSVLRCEKCRKVEVVPYGVESKPCSCGGVMHNIIVKYMEHGKLLSQYPEPKEIRKRTLSELEYFRSSN	soluble
MKMGENVTEYFEFAGVKNTENTLKYAIERAKLGISDIVVASSYGETAKMLFDMLEKENLNVNVVVVTYHQGFSGPDVVAMPENVKKDLEKRGATVFSGTHALSGVERGISKRFGGYGPVEVIAQTLKTLGQGVKVCYEVTVMAADAGLVSTKKEIIAIGGSSRGADSAVVIRPSNMNTFFDIELRELICMPKNKKKHEMAGDPLEHHHHHH	soluble
MKMNVESFNLDHTKVKAPYVRIADRKKGVNGDLIVKYDVRFKQPNRDHMDMPSLHSLEHLVAEIIRNHANYVVDWSPMGCQTGFYLTVLNHDNYTEILEVLEKTMQDVLKAKEVPASNEKQCGWAANHTLEGAQNLARAFLDKRAEWSEVGVGSHHHHHH	soluble
MKNFMKYLEVSKEVKEALENNKPVVALESTIISHGMPFPQNYETALKVEKVIREAGAIPATIAILDGKLKVGLSAEEIEFLGKEGSKIIKVSRRDLPYIVANKLNGATTVATTMIVAEMAGVKVFATGGIGGVHRGAETTMDISADLEELSNTNVAVICAGAKSILDLGLTLEYLETHGVPVLGYQTKKLPAFFTRESEFDLDYKIDTPKELADIITAKWEMGLNGGVVIANPIPVEYSMDYDEISKSIEEAVKEAEAKGIKGKESTPFLLAKIKEITKGKSLEANIQLVYNNAKLASEIAGNMK	not soluble
MKNFVAGAQSGRKIQSGGCAIHCQDCSISQLCIPFTLNEQELDQLDNIIERKKPIQKSQVLFKAGDSLNSIYAIRSGTIKSYTISESGEEQITSFHLPGDLVGFDAITQMQHPSFAQALETAMVCEIPFDILDDLAGKMPKLRQQILRLMSSEIKSDQEMILLLSKMNAEERLAAFIHNLSKRYSARGFSAREFRLTMTRGDIGNYLGLTVETISRLLGRFQKLGVISVQGKYITINDLNGLIELTGTNKTKITLVK	not soluble
MKNIKKNQVMNLGPNSKLLKEYKSQLIELNIEQFEAGIGLILGDAYIRSRDEGKTYCMQFEWKNKAYMDHVCLLYDQWVLSPPHKKERVNHLGNLVITWGAQTFKHQAFNKLANLFIVNNKKTIPNNLVENYLTPMSLAYWFMDDGGKWDYNKNSTNKSIVLNTQSFTFEEVEYLVKGLRNKFQLNCYVKINKNKPIIYIDSMSYLIFYNLIKPYLIPQMMYKLPNTISSETFLK	soluble
MKNIKMPVLVLAAEKDHITPPESVTAFFEKIPSKDKKLLLSDKGHIGLTVSGSSHRKIWPEAIKWVVERSK	not soluble
MKNIVSAFGIIPRNNRLMYIHSYQSYVWNTMVSRRIEEYGLRPVPGDLVLKGATPTYIEEDDVDNYSIHDVVMPLPGFDVIYPKHKISEAYREMLAADNLDIDNMRHTIRDYSLSGAYRRIIIRPQSVSWEVVAYDDPKIPLFNTDVDNLEGKPPPVFASEGKYRALKMDFSLPPSTYATMAIREVLKMDTSIKNQTQLNTSWLR	not soluble
MKNMLPAYIKIHDQIKKDIDEYRWAIGERLPSERDLAEQFAVSRMTLRQAVSLLVEEGVLERRVGSGTFVSSTRVQEKMRGTTSFTEIVKSQGKVPSSQLISYKKTIPNEQEVAKLGIFPTDNIIRMERVRYADQVPLVYEVASIPEKFIKDFKKEEITSHFFQTLQKHGYRIGKSQQTIYARLAKEKIAHYLEVEKGHAILGLTQVSYLEDGTAFEYVKSQYVGERFEFYLENN	not soluble
MKNTEIRKNIFPVGFYDDIHPDFSVNFQMNRCYTMTNDDVMLKEMREISPSIHNYEEFIEKFLELYNKALNEGHKLRAAYYLRTAEFYMTADHPQKQNYRKQFISLMQEYFNISDEQPYKVPYENGFLPAYRFTSEAPKGTIVMFGGFDSYVEEMFKMALFLKEAGYDVVFFDGPGQGSALEDYKIPMTHEWEKPVKSILDYFELDDVTLLGISLGGYLTVRAAAFEKRVHRVIADDILSNFYEVVLNTLPSQLKEKVNSLMSDGNEQEVNILFKDLMKKSLMVEWAINQGMHITGSKTPYEFLNKILLYNTSKISEKLEQDVLLMAAQEDHYIPLNQFFDQSKSLINVRSLTTRMFTRKETAQNHCQSGNLGLAFEVIANWIEQIQK	soluble
MKNVIACISSPRRVQSICDYAIWAVRRLGSELELLHVVEREQDAVPIADLSGGIWMGTQETLLKELAELDERRQQLAQEQGRQLLQAATERAREAGIQGLAGLARQGYLVDVLLELEDDARLFVMGQHDRPTKPSRLLPDQHLEAAVRALHRPVLVAG	not soluble
MKPDAHHVKQFLLRLQDDICQTLSAVDGANFVEDSWRREAGGGGRSRVLRNGGIFEQAGVNFSHVHGDAMPASATAHRPELAGRSFEAMGVSLVVHPHNPYIPTSHANVRFFIAEKPGADPVWWFGGGFDLTPYYGFEEDAVHWHRTARDLCQPFGDDVYPRYKKWCDDYFFLKHRNEQRGVGGLFFDDLNTPDFDHCFDFMQAVGNGYTRAYLPIVERRKAMVWGERERNFQLYRRGRYVEFNLVWDRGTLFGLQTGGRTESILMSMPPLVRWEYDWQPEAGSPEAALSEFIQVRDWILEHHHHHH	soluble
